The target in assay [1] is T1, VEGFR1 (Rattus norvegicus, UniProt P53767).
T1 chain: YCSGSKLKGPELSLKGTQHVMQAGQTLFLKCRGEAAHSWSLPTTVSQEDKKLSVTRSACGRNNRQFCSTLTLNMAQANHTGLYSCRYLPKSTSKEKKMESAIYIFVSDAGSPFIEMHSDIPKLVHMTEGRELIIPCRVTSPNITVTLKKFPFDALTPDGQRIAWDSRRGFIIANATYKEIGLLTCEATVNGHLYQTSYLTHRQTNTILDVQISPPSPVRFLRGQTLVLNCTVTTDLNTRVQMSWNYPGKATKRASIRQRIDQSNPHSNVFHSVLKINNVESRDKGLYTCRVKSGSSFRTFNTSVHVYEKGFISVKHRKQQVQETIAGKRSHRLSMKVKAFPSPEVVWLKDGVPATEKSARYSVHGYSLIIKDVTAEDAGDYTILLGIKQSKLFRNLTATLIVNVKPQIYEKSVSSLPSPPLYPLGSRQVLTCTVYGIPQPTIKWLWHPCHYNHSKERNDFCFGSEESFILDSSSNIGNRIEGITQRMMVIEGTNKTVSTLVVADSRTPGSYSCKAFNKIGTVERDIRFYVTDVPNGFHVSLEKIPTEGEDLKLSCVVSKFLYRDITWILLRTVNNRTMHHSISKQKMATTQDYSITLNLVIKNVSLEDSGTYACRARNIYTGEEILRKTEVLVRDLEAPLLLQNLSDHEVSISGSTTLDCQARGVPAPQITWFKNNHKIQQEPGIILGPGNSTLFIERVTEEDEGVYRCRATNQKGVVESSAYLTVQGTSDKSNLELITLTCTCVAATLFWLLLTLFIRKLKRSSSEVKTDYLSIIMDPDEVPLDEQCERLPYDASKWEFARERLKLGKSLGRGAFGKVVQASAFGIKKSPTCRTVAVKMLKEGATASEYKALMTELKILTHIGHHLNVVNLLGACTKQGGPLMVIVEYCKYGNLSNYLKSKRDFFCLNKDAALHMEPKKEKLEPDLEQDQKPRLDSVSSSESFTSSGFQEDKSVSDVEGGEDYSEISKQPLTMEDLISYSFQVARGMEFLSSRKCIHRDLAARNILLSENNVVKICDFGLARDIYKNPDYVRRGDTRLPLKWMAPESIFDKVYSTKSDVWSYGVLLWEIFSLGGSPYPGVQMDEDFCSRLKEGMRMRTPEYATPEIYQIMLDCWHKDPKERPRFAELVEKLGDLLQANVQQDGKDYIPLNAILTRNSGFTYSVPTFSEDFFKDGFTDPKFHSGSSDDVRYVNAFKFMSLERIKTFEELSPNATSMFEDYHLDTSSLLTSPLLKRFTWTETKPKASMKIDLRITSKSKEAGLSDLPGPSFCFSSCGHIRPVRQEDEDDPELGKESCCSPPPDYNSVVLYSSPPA
Put plainly: [125I]-VEGF-A saturation binding to isolated LSECs at 4°C, Scatchard.

Assay [2] addresses T2, VEGFR2 (Rattus norvegicus, UniProt O08775).
T2 chain: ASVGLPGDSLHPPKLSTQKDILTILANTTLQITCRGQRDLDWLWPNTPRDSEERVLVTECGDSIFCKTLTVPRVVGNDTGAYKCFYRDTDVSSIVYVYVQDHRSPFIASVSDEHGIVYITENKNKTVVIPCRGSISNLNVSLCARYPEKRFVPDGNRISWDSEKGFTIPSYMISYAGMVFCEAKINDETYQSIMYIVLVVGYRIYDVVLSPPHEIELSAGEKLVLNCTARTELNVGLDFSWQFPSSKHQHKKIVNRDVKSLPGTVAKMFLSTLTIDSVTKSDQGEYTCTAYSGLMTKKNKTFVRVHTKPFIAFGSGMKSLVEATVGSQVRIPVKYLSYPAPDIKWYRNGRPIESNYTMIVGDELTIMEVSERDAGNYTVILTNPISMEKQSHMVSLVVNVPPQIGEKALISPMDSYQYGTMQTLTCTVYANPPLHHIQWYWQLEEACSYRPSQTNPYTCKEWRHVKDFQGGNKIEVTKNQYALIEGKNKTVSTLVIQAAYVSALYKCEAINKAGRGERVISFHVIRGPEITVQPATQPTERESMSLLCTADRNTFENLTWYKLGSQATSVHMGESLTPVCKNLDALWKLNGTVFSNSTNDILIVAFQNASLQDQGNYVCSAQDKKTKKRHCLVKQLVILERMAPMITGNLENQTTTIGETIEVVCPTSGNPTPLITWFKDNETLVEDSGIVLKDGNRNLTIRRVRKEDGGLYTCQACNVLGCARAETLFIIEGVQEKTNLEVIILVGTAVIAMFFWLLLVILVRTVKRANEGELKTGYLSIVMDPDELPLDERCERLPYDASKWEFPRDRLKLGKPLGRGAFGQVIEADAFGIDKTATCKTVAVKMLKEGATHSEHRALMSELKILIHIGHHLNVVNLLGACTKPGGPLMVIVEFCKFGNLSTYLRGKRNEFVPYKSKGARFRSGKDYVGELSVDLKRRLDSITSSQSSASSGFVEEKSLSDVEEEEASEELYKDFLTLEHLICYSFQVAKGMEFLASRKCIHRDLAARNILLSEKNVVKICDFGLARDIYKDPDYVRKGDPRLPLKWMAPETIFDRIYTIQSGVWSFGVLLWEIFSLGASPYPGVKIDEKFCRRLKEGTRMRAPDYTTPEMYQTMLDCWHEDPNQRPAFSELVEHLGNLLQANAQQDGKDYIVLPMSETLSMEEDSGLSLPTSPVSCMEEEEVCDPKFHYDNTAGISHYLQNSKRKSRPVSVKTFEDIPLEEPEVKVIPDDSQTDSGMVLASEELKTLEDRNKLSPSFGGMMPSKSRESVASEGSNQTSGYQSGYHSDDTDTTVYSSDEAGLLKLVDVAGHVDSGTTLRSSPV
The assay is described as above.

This passage reports Kd results from publication PMC6754870 (2019).

B1: VEGF-A165 (protein)
chain: MTDRQTDTAPSPSYHLLPGRRRTVDAAASRGQGPEPAPGGGVEGVGARGVALKLFVQLLGCSRFGGAVVRAGEAEPSGAARSASSGREEPQPEEGEEEEEKEEERGPQWRLGARKPGSWTGEAAVCADSAPAARAPQALARASGRGGRVARRGAEESGPPHSPSRRGSASRAGPGRASETMNFLLSWVHWSLALLLYLHHAKWSQAAPMAEGGGQNHHEVVKFMDVYQRSYCHPIETLVDIFQEYPDEIEYIFKPSCVPLMRCGGCCNDEGLECVPTEESNITMQIMRIKPHQGQHIGEMSFLQHNKCECRPKKDRARQEKKSVRGKGKGQKRKRKKSRYKSWSVPCGPCSERRKHLFVQDPQTCKCSCKNTDSRCKARQLELNERTCRCDKPRR
modifications: 125I-labeled VEGF-A
The Kd is the concentration at which binding is half-saturated. A higher Kd goes with a looser complex. Take B1: the Kd in assay [1] worked out at 0.008 nM; in assay [2] it was 0.21 nM.
